Measured values taken from patent US20120329067, “Methods of Generating Zinc Finger Nucleases Having Altered Activity” (published 2012).

How the values were obtained:
[1] = molecular target: E3 zinc finger protein (three C-terminal fingers of E2C) (artificial); experiment: EMSA; details: tags: no cleavage domain
[2] = molecular target: E4 zinc finger protein (four C-terminal fingers of E2C) (artificial); experiment: EMSA; details: tags: no cleavage domain
[3] = molecular target: E5 zinc finger protein (five C-terminal fingers of E2C) (artificial); experiment: EMSA; details: tags: no cleavage domain
[4] = molecular target: E6 (E2C) six-finger zinc finger protein (artificial); experiment: EMSA; details: tags: no cleavage domain
[5] = molecular target: P3 ZFN FCD S418P (artificial, UniProt P14870 SEQ:1-284, S418P (FokI numbering)); experiment: cell_activity; details: chain copies: 2 inferred
[6] = molecular target: P3 ZFN FCD K441E (artificial, UniProt P14870 SEQ:1-284, K441E (FokI numbering)); experiment: cell_activity; details: chain copies: 2 inferred
Sequence of P3 ZFN FCD K441E (P14870 other isoform, or with tags, fused parts or gaps K441E (FokI numbering) | K441E K441E): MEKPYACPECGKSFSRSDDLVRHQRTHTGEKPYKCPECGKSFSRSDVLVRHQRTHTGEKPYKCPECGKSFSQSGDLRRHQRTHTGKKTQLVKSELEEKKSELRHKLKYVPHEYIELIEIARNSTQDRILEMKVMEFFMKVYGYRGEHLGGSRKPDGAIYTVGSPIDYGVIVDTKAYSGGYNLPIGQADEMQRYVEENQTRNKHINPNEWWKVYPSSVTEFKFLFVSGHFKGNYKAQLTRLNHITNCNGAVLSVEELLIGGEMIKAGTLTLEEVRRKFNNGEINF

Sequence of E6 (E2C) six-finger zinc finger protein (artificial) (chain, as listed by the source): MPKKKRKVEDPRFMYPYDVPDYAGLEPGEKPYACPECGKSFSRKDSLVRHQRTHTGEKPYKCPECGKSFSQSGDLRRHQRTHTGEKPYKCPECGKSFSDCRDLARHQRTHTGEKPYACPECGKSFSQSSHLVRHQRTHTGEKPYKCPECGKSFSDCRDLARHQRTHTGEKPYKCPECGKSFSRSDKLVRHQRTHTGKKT
Sequence of E3 zinc finger protein (three C-terminal fingers of E2C) (artificial) (chain, as listed by the source): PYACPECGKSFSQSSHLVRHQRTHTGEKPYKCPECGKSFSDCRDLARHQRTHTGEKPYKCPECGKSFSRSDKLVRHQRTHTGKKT
Sequence of E4 zinc finger protein (four C-terminal fingers of E2C) (artificial) (chain, as listed by the source): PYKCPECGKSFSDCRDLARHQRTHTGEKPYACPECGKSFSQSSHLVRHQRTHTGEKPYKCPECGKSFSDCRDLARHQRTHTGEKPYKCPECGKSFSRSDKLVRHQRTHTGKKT
Sequence of E5 zinc finger protein (five C-terminal fingers of E2C) (artificial) (chain, as listed by the source): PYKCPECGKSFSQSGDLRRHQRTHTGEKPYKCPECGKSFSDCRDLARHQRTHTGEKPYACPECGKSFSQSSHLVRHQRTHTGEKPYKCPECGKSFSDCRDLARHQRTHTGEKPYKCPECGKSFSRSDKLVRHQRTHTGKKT
Sequence of P3 ZFN FCD S418P (P14870 other isoform, or with tags, fused parts or gaps S418P (FokI numbering) | S418P S418P): as the sequence (P14870 other isoform, or with tags, fused parts or gaps K441E (FokI numbering) | K441E K441E) above, with S123P, E146K counted along it

B1: E3 binding site (dsDNA)
DNA 1: GGGGCCGGA
DNA 2: TCCGGCCCC
In the case of B1, the Kd [1] is reported as 35 nM.

B2: E4 binding site (dsDNA)
DNA 1: GGGGCCGGAGCC
DNA 2: GGCTCCGGCCCC
Binder B2 has a Kd [2] of 10.6 nM.

B3: E5 binding site (dsDNA)
DNA 1: GGGGCCGGAGCCGCA
DNA 2: TGCGGCTCCGGCCCC
B3 was tested, and the Kd [3] was 4.2 nM.

B4: E6 (E2C) binding site (dsDNA)
DNA 1: GGGGCCGGAGCCGCAGTG
DNA 2: CACTGCGGCTCCGGCCCC
In the case of B4, the Kd [4] is reported as 0.85 nM.

B5: P3/P3 cleavage site, MluI spacer (dsDNA)
DNA 1: CGCCACTGCACGCGTGCAGTGGCG
DNA 2: CGCCACTGCACGCGTGCAGTGGCG
B5 was tested, and the binding signal [5] was > 10 fold of wt FCD activity and the binding signal [6] was > 5 fold of wt FCD activity.
